How the values were obtained:
[1] = biological target: PP2A (total PP2A, detected with an anti-PP2A C subunit antibody) (mouse (endogenous in adult mouse brain slices)) (UniProt P63330)
[2] = biological target: PP2A (total PP2A, detected with an anti-PP2A C subunit antibody) (mouse (endogenous in adult mouse brain slices)) (UniProt P63330); remark: listed apart in the source
[3] = biological target: endogenous SET (mouse (endogenous in adult mouse brain slices)) (UniProt Q9EQU5); assay: co-IP; lysates of adult mouse brain slices incubated 5 h 30 min with or without recombinant SET (4 μM); IP with polyclonal anti-SET (recognises endogenous and recombinant SET) and protein A Sepharose, overnight 4°C; Hepes 10 mM, NaCl 150 mM, CaCl2 2 mM, Triton X-100 1% pH 7.4; blot for total PP2A C subunit, then methyl-PP2A after stripping
Sequence of UniProt Q9EQU5 (Q9EQU5 whole entry): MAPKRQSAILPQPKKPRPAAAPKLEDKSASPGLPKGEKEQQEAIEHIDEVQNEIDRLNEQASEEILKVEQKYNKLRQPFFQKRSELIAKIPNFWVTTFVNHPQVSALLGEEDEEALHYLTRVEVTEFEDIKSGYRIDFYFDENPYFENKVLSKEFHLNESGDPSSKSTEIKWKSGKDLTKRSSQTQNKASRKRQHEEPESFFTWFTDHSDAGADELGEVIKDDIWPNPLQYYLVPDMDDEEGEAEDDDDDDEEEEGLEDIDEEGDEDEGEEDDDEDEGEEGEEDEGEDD

Sequence of UniProt P63330 (P63330 whole entry): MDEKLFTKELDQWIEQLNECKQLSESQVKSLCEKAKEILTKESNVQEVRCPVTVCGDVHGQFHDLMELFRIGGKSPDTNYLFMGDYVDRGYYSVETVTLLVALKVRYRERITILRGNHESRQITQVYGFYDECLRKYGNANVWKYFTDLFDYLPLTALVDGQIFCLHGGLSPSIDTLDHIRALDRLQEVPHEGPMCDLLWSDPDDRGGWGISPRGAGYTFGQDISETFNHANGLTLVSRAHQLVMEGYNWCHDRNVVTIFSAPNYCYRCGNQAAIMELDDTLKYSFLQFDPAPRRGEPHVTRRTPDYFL

Substance	ratio of methyl-PP2A to total PP2A by western blotting of brain slice lysates after 5 h 30 min of recombinant SET internalization, percent of the control ratio (% of control ratio) [1]	PP2A activity (release of p-nitrophenol) on PP2A immunoprecipitated from brain slices containing internalized recombinant SET, percent of control [2]	ratio of methyl-PP2A to total PP2A co-immunoprecipitated with SET [3]
recombinant HA-tagged SET protein fused to the Penetratin vector (from UniProt Q01105 1-290) (natural protein)	83.6	84 % of control	–
methylated PP2A (from UniProt P63330 1-309) (enzyme)	–	–	2.18

Reference: paper PMC4086270
